Usually stoichiometry N stands for a count of units in the complex or per binding partner.

The values below come from publication PMC10501769 (eLife, 2023).

This data set deals with the molecule itself. Nature of the data set: SEC.

B1: His-tagged Rv0158 protein of Mycobacterium tuberculosis H37Rv (natural protein)
chain: MPSDTSPNGLSRREELLAVATKLFAARGYHGTRMDDVADVIGLNKATVYHYYASKSLILFDIYRQAAEGTLAAVHDDPSWTAREALYQYTVRLLTAIASNPERAAVYFQEQPYITEWFTSEQVAEVREKEQQVYEHVHGLIDRGIASGEFYECDSHVVALGYIGMTLGSYRWLRPSGRRTAKEIAAEFSTALLRGLIRDESIRNQSPLGTRKET
notes: also called Histidine-tagged Rv0158; hexahistidine-tagged Rv0158 protein
For B1, the “stoichiometry N” value was found to be 2.
